Five molecules from paper PMC12173945, “Import mechanism of peroxisomal proteins with an N-terminal signal sequence” (Nature Cell Biology, 2025) can be followed below.

Experiment [1] deals with yeast PEX7. Kind of experiment: Bead-binding assay: PEX5 variants, PEX7 and PTS2 cargo (Extended Data Fig. 2a,c, 6b). Set-up: species or system yeast (S. cerevisiae). The following applies: 1 µM PEX7–GFP. The source says:
Cysteine-containing peptides were covalently conjugated to thiol-reactive SulfoLink coupling resin (Thermo Fisher, catalogue number 20401) according to the manufacturer’s instructions. The prepared beads were then mixed with Assay Buffer containing the fluorescently labelled protein as well as additional components indicated in the text, and the resulting bead suspensions were transferred to a 384-well glass-bottomed plate (Cellvis, P384-1.5H-N). GST-fusion proteins were instead mixed with glutathione agarose 4B (Prometheus, 20-543) in Assay Buffer containing the fluorescently labelled protein and additional components indicated in the text; the resulting bead suspensions were then transferred to a glass-bottomed plate as above. The plates were incubated at RT for the durations specified in the text and directly imaged on the spinning-disk confocal platform described earlier for peroxisomal import reactions in Xenopus egg extract. Note that imaging the beads directly in the binding reaction preserves the equilibrium and thereby allows even weak interactions to be detected. Fluorescence was collected through a Nikon ×10 0.45 NA Plan Apo air objective, and images were acquired using the Nikon NIS-Elements software and a 16-bit digitizer without binning. Imaging parameters were configured to maximize the SNR while avoiding saturation. […]

Experiment [2] addresses T1, yeast PEX7 (yeast (S. cerevisiae), UniProt P39108 1-375).
T1 construct: PEX7, yeast (S. cerevisiae); also called purified recombinant yeast PEX7; not shown: GST, N-terminal, cleaved
T1 sequence (looked up): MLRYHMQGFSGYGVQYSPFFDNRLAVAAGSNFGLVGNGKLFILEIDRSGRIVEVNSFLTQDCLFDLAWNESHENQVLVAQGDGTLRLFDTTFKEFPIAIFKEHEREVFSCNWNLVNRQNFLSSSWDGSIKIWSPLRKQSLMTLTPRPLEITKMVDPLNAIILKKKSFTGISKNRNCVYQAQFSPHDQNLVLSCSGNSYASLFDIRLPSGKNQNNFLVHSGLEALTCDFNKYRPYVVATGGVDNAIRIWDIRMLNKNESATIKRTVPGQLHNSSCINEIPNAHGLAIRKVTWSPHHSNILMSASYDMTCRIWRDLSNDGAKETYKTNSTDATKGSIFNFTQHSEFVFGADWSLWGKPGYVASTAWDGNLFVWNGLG
Kind of experiment: pull-down; competition: glutathione beads with yeast PEX7 and GST-tagged PEX39 ∆APH (each 1 µM), 30 min at 25 °C, then varying concentrations of peptide for 1 h; beads sedimented, supernatant on SDS–PAGE with Coomassie; competitive-binding isotherm, observed binding constants (Kobs). The following applies: both partners purified.

Experiment [3] concerns the target T2, yeast PEX7 fused at the C terminus to GFP (PEX7–GFP) (yeast (S. cerevisiae), UniProt P39108 1-375).
T2 construct: PEX7, yeast (S. cerevisiae); not shown: GST, N-terminal, cleaved; GFP, C-terminal, kept
T2 sequence (looked up): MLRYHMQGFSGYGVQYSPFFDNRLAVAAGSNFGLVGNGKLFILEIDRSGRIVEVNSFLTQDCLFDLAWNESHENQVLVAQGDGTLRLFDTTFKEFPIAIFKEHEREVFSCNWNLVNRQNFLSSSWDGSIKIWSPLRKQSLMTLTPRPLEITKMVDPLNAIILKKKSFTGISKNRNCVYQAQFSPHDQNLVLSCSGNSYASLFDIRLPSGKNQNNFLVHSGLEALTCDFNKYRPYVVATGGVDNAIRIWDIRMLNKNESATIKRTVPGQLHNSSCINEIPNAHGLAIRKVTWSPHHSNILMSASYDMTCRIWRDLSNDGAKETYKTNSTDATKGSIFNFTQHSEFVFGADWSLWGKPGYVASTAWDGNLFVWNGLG
In words: bead-binding assay (fluorescence on beads by spinning-disk confocal microscopy); peptide or YG-domain polypeptide conjugated through a cysteine to thiol-reactive beads; PEX7–GFP or GFP alone in Assay Buffer (25 mM HEPES-NaOH pH 7.8, 150 mM NaCl, 1 mM TCEP), RT, 1 h (Fig. 3b); beads imaged directly in the binding reaction. The following applies: both partners purified.

The subject of experiment [4] is S. cerevisiae cells expressing RFP–FOX2 and POT1–GFP. Kind of experiment: Peroxisomal protein import assay in S. cerevisiae. In kind it is cell-based. The following applies: yeast expressing PTS1 and PTS2 matrix proteins. The method, then: Peroxisome biogenesis was induced in S. cerevisiae using an established procedure. Briefly, cells were subcultured twice in YPD medium to mid-log phase (optical density at 600 nm (OD600) ≈ 2), harvested through centrifugation at 2,000g and 30 °C for 10 min, sterilely resuspended to an OD600 of 0.5 in YPGO medium (1% wt/vol yeast extract, 2% wt/vol peptone, 2% vol/vol glycerol, 0.1% wt/vol oleic acid and 0.25% vol/vol Tween 40) and cultured for an additional 16 h at 30 °C. For experiments involving PEX7 riboswitch constructs, cultures in YPGO were supplemented with 250 µM tetracycline (Millipore Sigma, T7660) as described previously.
S. cerevisiae cells expressing RFP–FOX2 and POT1–GFP (MSB-462) were induced to form peroxisomes as described earlier. […]
The cells were imaged on a spinning-disk confocal platform consisting of a Nikon Eclipse Ti inverted microscope, a Yokagawa CSU-X1 spinning-disk confocal scanner, a Hamamatsu ORCA-Fusion BT sCMOS camera and a Prior Proscan II motorized stage. […] Fluorescence was collected using a red-emission ET605/52 m (605 ± 26 nm) or a green-emission ET525/50 m (525 ± 25 nm) single-band bandpass filter (Chroma), respectively, through either a Nikon ×100 1.45 numerical aperture (NA) Plan Apo Lambda or Nikon ×40 0.95 NA Plan Apo Lambda air objective. […]

For experiment [5], the system named is PEX7–FLAG in peroxisome-containing membrane fraction. In words: Cell fractionation and FLAG immunoprecipitation / immunoblot of PEX7–FLAG and PEX39–FLAG. The experiment is classed as cell-based, S. cerevisiae. To be noted: PEX13 lacking the KPWE motif; yeast in oleic acid. The method, then: Samples in Laemmli buffer (50 mM Tris–HCl pH 6.8 at RT, 10% vol/vol glycerol, 2% wt/vol SDS, 0.01% bromophenol blue and 700 mM β-mercaptoethanol) were heated for 5 min at 95 °C and then electrophoretically resolved under denaturing conditions on 4–20% TGX precast polyacrylamide gels (Bio-Rad, catalogue number 5671095). For immunoblotting, samples were transferred from the gels to Immun-Blot PVDF membranes (Bio-Rad, catalogue number 13709A06) for 12 h at 25 V and RT in 25 mM Tris, 192 mM glycine and 10% vol/vol methanol. The membranes were blotted in 20 mM Tris–HCl pH 7.5 at RT, 150 mM NaCl, 0.01% vol/vol Tween 20 and 3% wt/vol fat-free milk solids (Apex, catalogue number 20241) using antibodies to the FLAG epitope (Sigma, F7425) and compatible horseradish peroxidase-conjugated secondary antibodies (Cytiva, NA934). The blots were developed by chemiluminescence (Perkin Elmer, NEL103001EA) and scanned on an Amersham ImageQuant 800 imaging system. For staining with Coomassie blue, gels were fixed in 50% vol/vol methanol and 10% vol/vol acetic acid for 30 min at RT, incubated for 30 min in 50% vol/vol methanol, 10% vol/vol acetic acid and 0.001% wt/vol Coomassie brilliant blue R-250 (Bio-Rad), and destained overnight in 10% vol/vol acetic acid before washing into water. The stained gels were digitized on an Epson Perfection V700 scanner using the Epson Scan 2 software. […]
For orientation: A western blot detects proteins with antibodies after separation by electrophoresis.

The target of experiment [6] is T3, GST-tagged yeast PEX7 (GST–PEX7) (yeast (S. cerevisiae), UniProt P39108 1-375).
T3 construct: PEX7, yeast (S. cerevisiae); GST followed by a TEV protease-cleavage site; source: purified recombinant; PEX7 was produced in P. pastoris as a fusion to an N-terminal GST tag; not shown: GST, N-terminal, kept
T3 sequence (looked up): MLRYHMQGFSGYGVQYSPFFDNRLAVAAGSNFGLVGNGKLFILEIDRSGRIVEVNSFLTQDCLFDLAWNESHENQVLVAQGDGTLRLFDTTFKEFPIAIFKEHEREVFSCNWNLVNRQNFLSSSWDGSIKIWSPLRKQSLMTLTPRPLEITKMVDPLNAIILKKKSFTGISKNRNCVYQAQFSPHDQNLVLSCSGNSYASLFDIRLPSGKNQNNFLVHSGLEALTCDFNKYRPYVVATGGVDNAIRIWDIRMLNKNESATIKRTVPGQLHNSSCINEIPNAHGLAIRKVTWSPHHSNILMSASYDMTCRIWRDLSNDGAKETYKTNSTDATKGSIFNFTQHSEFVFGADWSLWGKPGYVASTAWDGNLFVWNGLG
Kind of experiment: bead-binding assay (fluorescence on beads by spinning-disk confocal microscopy); GST-tagged protein on glutathione beads; GFP-fused partner in solution (1 µM each in Extended Data Fig. 9a); 1 h, RT. The following applies: both partners purified.

In experiment [7] the target is T2, yeast PEX7 fused at the C terminus to …. The description is as above. The following applies: both partners purified.
Experiment [8] deals with T1, yeast PEX7. Kind of experiment: pull-down; quantitative: glutathione agarose with 1 µM yeast PEX7 and varying concentrations of GST-tagged PEX39 variants, Assay Buffer, 25 °C, 1 h; beads sedimented, PEX7 left in the supernatant quantified by SDS–PAGE and Coomassie; observed binding constants (Kobs). The following applies: both partners purified.

Regarding SQRLQSIKDHLVESRS [PTS2 peptide], the “Recruitment of PEX7–GFP to PEX5-21-coated beads” value in the experiment with yeast PEX7 [1] is reported as “could recruit PEX7–GFP only in the presence of the PTS2 peptide”.

B1: KPWE peptide (residues 2–20 of S. cerevisiae PEX13 with an additional N-terminal cysteine) (peptide)
peptide: CSSTAVPRPKPWETSASLEE
notes: additional N-terminal cysteine for coupling to thiol-reactive agarose beads; PEX13, S. cerevisiae, residues 2–20; also called peptide comprising the KPWE motif of yeast PEX13; source: synthetic peptide (Genscript)
As for B1, the binding result (with yeast PEX7 [2]; in experiment [3]) was “binds” in each case.

B2: PEX7–FLAG: PEX7 with a short SG linker and a FLAG epitope tag at the C terminus (protein, UniProt O00628 1-323, looked up)
Peroxisomal targeting signal …: MSAVCGGAARMLRTPGRHGYAAEFSPYLPGRLACATAQHYGIAGCGTLLILDPDEAGLRLFRSFDWNDGLFDVTWSENNEHVLITCSGDGSLQLWDTAKAAGPLQVYKEHAQEVYSVDWSQTRGEQLVVSGSWDQTVKLWDPTVGKSLCTFRGHESIIYSTIWSPHIPGCFASASGDQTLRIWDVKAAGVRIVIPAHQAEILSCDWCKYNENLLVTGAVDCSLRGWDLRNVRQPVFELLGHTYAIRRVKFSPFHASVLASCSYDFTVRFWNFSKPDSLLETVEHHTEFTCGLDFSLQSPTQVADCSWDETIKIYDPACLTIPA
modifications: C-terminal SG linker and FLAG tag
As for B2, in experiment [4], the “PEX7–FLAG function in protein import” value is “fully functional”. In addition, the “Enrichment in the membrane fraction” value in experiment [5] is recorded as “considerably enriched in the membrane fraction in the absence of the KPWE motif”.

B3: yeast PEX39 fused at the C terminus to GFP (PEX39–GFP) (natural protein, UniProt P47087 1-132, looked up)
chain: MAAGGELSYEELLDHILNNKPIPNIVEVPNVTLDEGLASTPSLRPRPRPWEGQLQHQSHQGSLDKPNISLDIDQESLEGMTSLTRLSECYDIQSKLQINDSDNDNDDNNNDNNKGDGNDDDNNTVTANPTAR
notes: PEX39, yeast; not shown: GST, N-terminal, cleaved; GFP, C-terminal, kept
As for B3, the binding result in experiment [6] is listed as “binds”.

B4: GST-tagged wild-type yeast PEX39 (GST–PEX39) (natural protein, UniProt P47087 1-132, looked up)
chain: MAAGGELSYEELLDHILNNKPIPNIVEVPNVTLDEGLASTPSLRPRPRPWEGQLQHQSHQGSLDKPNISLDIDQESLEGMTSLTRLSECYDIQSKLQINDSDNDNDDNNNDNNKGDGNDDDNNTVTANPTAR
notes: PEX39, yeast; also called WT; PEX39-coated beads; source: E. coli BL21 Rosetta 2(DE3), purified, GST-tagged; not shown: GST, N-terminal, kept
Turning to B4, the binding result (in experiment [7]; with yeast PEX7 [8]) was “binds” throughout.
